Data reported in PMC6331412, “Protein Disulfide Isomerase Modulates the Activation of Thyroid Hormone Receptors” (Frontiers in Endocrinology, 2018).
Blank lines part the entries; values can stand above or below the molecule they belong to. Primed or numbered codes have the meaning given here. Ends that are not written are not given here. FITC′ = fluorescein isothiocyanate label

How the values were obtained:
[1] = target: Fluorescein-SRC1–1 Coactivator Peptide 3; assay: fluorescence polarisation; TR+T3 or the complex TR+T3:PDIA1 titrated from 1 to 7,000 nM into 50 nM fluorescein-SRC1 peptide; buffer A or B; triplicate
[2] = target: hTRβΔAB (amino acids 102–461) labelled with FITC (human) (UniProt P10828); assay: fluorescence polarisation; oxidised PDIA1 (pre-incubated with 0.5 mM H2O2 for 30 min) titrated from 0.012 to 25 μM into 50 nM TR-FITC; 20 mM sodium phosphate pH 7.4, 150 mM NaCl, 5 mM MgCl2, no DTT in the buffer; with and without T3 by the methods, not given for the values
[3] = target: hTRα full length labelled with FITC (human) (UniProt P10827); assay: as above
[4] = target: hTRβΔAB (amino acids 102–461) labelled with FITC (human) (UniProt P10828); assay: fluorescence polarisation; PDIA1 titrated from 0.012 to 25 μM into 50 nM TR-FITC pre-incubated with 3 times molar excess of T3; 20 mM sodium phosphate pH 7.4, 150 mM NaCl, 5 mM MgCl2, 1 mM DTT; 20°C; Hill fit
[5] = target: hTRα full length labelled with FITC (human) (UniProt P10827); assay: as above
[6] = target: hTRβΔAB (amino acids 102–461) labelled with FITC (human) (UniProt P10828); assay: fluorescence polarisation; PDIA1 titrated from 0.012 to 25 μM into 50 nM TR-FITC, without T3; 20 mM sodium phosphate pH 7.4, 150 mM NaCl, 5 mM MgCl2, 1 mM DTT; 20°C; Hill fit
[7] = target: hTRα full length labelled with FITC (human) (UniProt P10827); assay: as above
[8] = target: hTRβΔAB (amino acids 102–461), recombinant (human) (UniProt P10828); assay: SEC; analytical gel filtration, Superdex 200 HR 10/300, buffer A or B with 150 mM NaCl and 2 mM DTT, 0.5 mL/min; hydrodynamic radii from calibration standards; proteins alone and mixed
[9] = target: hTRα full length, recombinant (human) (UniProt P10827); assay: as above
[10] = target: hTRβΔAB (amino acids 102–461) labelled with FITC (human) (UniProt P10828); assay: fluorescence polarisation; reduced PDIA1 (pre-incubated with 0.5 mM DTT for 30 min) titrated from 0.012 to 25 μM into 50 nM TR-FITC; 20 mM sodium phosphate pH 7.4, 150 mM NaCl, 5 mM MgCl2, no DTT in the buffer; with and without T3 by the methods, not given for the values
[11] = target: hTRα full length labelled with FITC (human) (UniProt P10827); assay: as above
[12] = target: T1, hTRβΔAB (amino acids 102–461), recombinant (human, UniProt P10828 102-461); assay: fluorescence polarisation; TR+T3 or the complex TR+T3:PDIA1 titrated from 1 to 7,000 nM into 50 nM fluorescein-SRC1 peptide; buffer A or B; triplicate; conditions: both partners purified
T1 construct: numbers fit TRβ1 (461 aa); Unlabelled protein, used in SEC, DLS and, pre-incubated with T3, in the SRC1 anisotropy; also called TRβDL; source: E. coli BL21(DE3), purified (Talon resin, SEC Superdex 75)
T1 sequence (looked up): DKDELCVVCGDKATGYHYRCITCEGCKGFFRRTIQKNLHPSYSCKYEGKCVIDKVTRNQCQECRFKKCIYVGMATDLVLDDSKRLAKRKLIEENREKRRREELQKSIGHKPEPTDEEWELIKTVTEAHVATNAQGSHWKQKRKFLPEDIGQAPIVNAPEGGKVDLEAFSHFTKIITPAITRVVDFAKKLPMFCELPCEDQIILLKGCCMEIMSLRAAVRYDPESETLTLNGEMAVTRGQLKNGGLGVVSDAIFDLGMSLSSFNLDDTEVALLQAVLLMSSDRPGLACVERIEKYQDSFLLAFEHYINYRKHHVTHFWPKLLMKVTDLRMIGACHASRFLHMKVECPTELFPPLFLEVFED

Molecule: TRα+T3:PDIA1 complex (from UniProt P10827-2 1-410; P07237 18-508)
Kd [1]: 0.7 µM

Molecule: TRβ+T3:PDIA1 complex (from UniProt P10828 102-461; P07237 18-508)
Kd [1]: 0.39 µM

Molecule: hPDIA1 full length, recombinant (from UniProt P07237 18-508) (enzyme)
Kd [2]: > 102 µM | Kd [3]: 7.9 µM | Kd [4]: 2.81 µM | Kd [5]: 1.97 µM | Kd [6]: 2.71 µM | Kd [7]: 2.05 µM | stoichiometry N [8]: 1 | stoichiometry N [9]: 1 | Kd [10]: 4.54 µM | Kd [11]: 10.7 µM

Second part, the molecule after the results:

Kd [1]: 0.29 µM
Molecule: hTRα full length, recombinant (from UniProt P10827-2 1-410) (receptor)

Kd [12]: 0.68 ± 0.06 µM
B1: Fluorescein-SRC1–1 Coactivator Peptide 3 (peptide)
peptide: {FITC′}-KYSQTSHKLVQLLTTTAEQQL
notes: also called SRC1 peptide; CoA peptide; source: bought: Life-technologies
